Here are results for one molecule from paper PMC11652653, “SON-1010: an albumin-binding IL-12 fusion protein that improves cytokine half-life, targets tumors, and enhances therapeutic efficacy” (Frontiers in Immunology, 2024).

In this assay the target is T1, human serum albumin (human, UniProt P02768 25-609).
T1 construct: human serum albumin (HSA); also called HSA; rHSA
The assay can be described thus: SPR; HSA bound to the chip, SON-1010 added, then SPARC (ternary complex); pH 6.0. Particulars: both partners purified. A general note: Surface plasmon resonance follows binding to a sensor surface in real time, without labels.

B1: secreted protein acidic and rich in cysteine (natural protein, UniProt P09486 18-303, looked up)
chain: APQQEALPDETEVVEETVAEVTEVSVGANPVQVEVGEFDDGAEETEEEVVAENPCQNHHCKHGKVCELDENNTPMCVCQDPTSCPAPIGEFEKVCSNDNKTFDSSCHFFATKCTLEGTKKGHKLHLDYIGPCKYIPPCLDSELTEFPLRMRDWLKNVLVTLYERDEDNNLLTEKQKLRVKKIHENEKRLEAGDHPVELLARDFEKNYNMYIFPVHWQFGQLDQHPIDGYLSHTELAPLRAPLIPMEHCTTRFFETCDLDNDKYIALDEWAGCFGIKQKDIDKDLVI
notes: SPARC (secreted protein acidic and rich in cysteine); also called SPARC
B1 registered a Kd of 10 nM.

By Kd is commonly meant a measure of binding affinity in units of concentration. A high value points to weaker binding.
